Data set [1] relates to Tac2. The experiment in a line: Resident intruder assay, Tac2 shRNA knockdown. The format is in vivo, mouse. As to conditions: SIS mice. From the text: (§1) Small hairpin RNA (shRNA) for the mouse Tac2 gene (NM_009312.2) were designed using the online designing tool siDirect 2.0 (http://sidirect2.mai.jp/) (Naito et al., 2009; incorporated by reference in its entirety).
8-16 week old mice were anesthetized with isoflurane and mounted in a stereotaxic apparatus (Kopf Instruments). Anesthesia was maintained throughout surgery at 1-1.5% isoflurane. The skull was exposed and small burr holes produced dorsal to each injection site using a stereotaxic mounted drill. […] Directly following surgery, mice were given a subcutaneous injection of ketoprofen (2 mg/kg) and supplied with drinking water containing 400 mg/L sulphamethoxazole and 200 mg/L ibuprofen and monitored for 7 days. […]
Testing for aggression using the resident intruder assay (Blanchard et al., 2003; incorporated by reference in its entirety) was performed as previously described (Hong et al., 2015; Hong et al., 2014; Lee et al., 2014; incorporated by reference in their entirety). […] Fighting bouts were scored on a frame-by-frame basis and were defined as a frame during which the resident male was engaged in an episode of biting or intense aggressive behavior immediately surrounding a biting episode. Annotation files were then batch analyzed for behavior, including number of fighting bouts, using in-house customized programs in MATLAB (A. Kennedy, Caltech). […]

Data set [2] deals with Tac2. The experiment in a line: Tone fear test, Tac2 shRNA knockdown. The data set is classed as in vivo, mouse. As to conditions: SIS mice.
Text: as §1
8-16 week old mice were anesthetized with isoflurane and mounted in a stereotaxic apparatus (Kopf Instruments). Anesthesia was maintained throughout surgery at 1-1.5% isoflurane. The skull was exposed and small burr holes produced dorsal to each injection site using a stereotaxic mounted drill. Virus was backfilled into pulled fine glass capillaries (˜50 μm diameter at tip) and pressure injections of 300 nl were made bilaterally into either the dBNSTa (AP +0.25, ML ±0.85, DV −4.1), DMH (AP −1.3, ML±0.35, DV −5.6), or CeA (AP −1.4, ML ±2.6, DV −4.73) at a rate of 30nl per minute using a nanoliter injector (Nanoliter 2000, World Precision Instruments) controlled by an ultra microsyringe pump (Micro4, World Precision Instruments). Capillaries remained in place for 5 minutes following injections to allow for full diffusion of virus and to reduce backflow up the injection tract. Skin above the skull was then drawn together and sealed with GLUture (Zoetis). For bilateral cannula implantations, single or double guide cannulas (custom, Plastics One) aimed 0.5 mm above each region were implanted and held in place with dental cement (Parkell). Compatible dummy cannulas with a 0.5 mm protrusion at the tip were inserted to prevent cannula clogging. Directly following surgery, mice were given a subcutaneous injection of ketoprofen (2 mg/kg) and supplied with drinking water containing 400 mg/L sulphamethoxazole and 200 mg/L ibuprofen and monitored for 7 days. Dummies were replaced every 2-3 days to keep cannula tracts clean. All injections were subsequently verified histologically.
The protocol for tone trace fear conditioning was performed as previously described (Cushman et al., 2014; incorporated by reference in its entirety) using fear conditioning boxes previously described in detail (Haubensak et al., 2010; Kunwar et al., 2015; incorporated by reference in their entirety). Briefly, mice were transported in squads of four on a white cart to a novel behavioral testing room containing 4 sound-attenuating fear-conditioning chambers (Med Associates). This “training context” was comprised of flat grid flooring (wired to a shock generator and scrambler for footshock delivery, Med Associates), houselights, and the presence of an internal fan for background noise. Chambers were sprayed with 70% Simple Green solution on the underlying chamber pan to generate a unique contextual scent and chambers were cleaned with 70% EtOH between squads. […]

The text below walks through data of patent publication US12083109B2, “Neurokinin antagonists and uses thereof” (California Institute of Technology, priority 2017, dated 2024).

Entries after “also recorded” stand apart in the source; their conditions may differ.

B1: shRNA-1: small hairpin RNA for mouse Tac2 gene (SEQ ID NO: 9, 10), expressed from AAV5-H1-shRNA-CMV-zsGreen (nucleic acid)
chain 1: CCGACGTGGTTGAAGAGAACACCGCTTCCTGTCACGGTGTTCTCTTCAACCACGTCTTTTTT
chain 2: AAAAAAGACGTGGTTGAAGAGAACACCGTGACAGGAAGCGGTGTTCTCTTCAACCACGTCGG
With B1, the SIS-induced aggression result with Tac2 [1] (AAV shRNA in DMH) was “blocked”. Moreover, the SIS-induced aggression result in the data set on Tac2 [1] (AAV shRNA in dBNSTa) is reported as “had no effect”. Besides, in the data set with Tac2 [2] (AAV shRNA in CeA), the “freezing to conditioned tone” value is reported as “blocked”. Also, in the data set with Tac2 [2] (AAV shRNA in dBNSTa), the “acute (during) freezing to conditioned tone” value was “had no effect” and the “persistent (post) freezing to conditioned tone” value is listed as “blocked; also recorded: strongly reduced”.

B2: shRNA-2: small hairpin RNA for mouse Tac2 gene (SEQ ID NO: 11, 12), expressed from AAV5-H1-shRNA-CMV-zsGreen (nucleic acid)
chain 1: CCGCCTCAACCCCATAGCAATTAGCTTCCTGTCACTAATTGCTATGGGGTTGAGGCTTTTTT
chain 2: AAAAAAGCCTCAACCCCATAGCAATTAGTGACAGGAAGCTAATTGCTATGGGGTTGAGGCGG
For B2, the “acute (during) freezing to conditioned tone” value in the data set on Tac2 [2] (AAV shRNA in dBNSTa) is “additionally reduced; also recorded: significantly reduced”.
